# Results reported in the Human Domainome abundance scans (Beltran et al. 2025).
# ± gives the uncertainty stated by the source.
# B1: Far upstream element-binding protein 3, residues 75 to 150; numbered along this chain, Q96I24 (parent)
# chain: RTVITEEFKVPDKMVGFIIGRGGEQISRIQAESGCKIQIASESSGIPERPCVLTGTPESIEQAKRLLGQIVDRCRN
# Variants of: B1
# Assay: abundance fitness (aPCA) (normalised: wild type 0, dead -1); higher = more abundant; growth selection in yeast, the domain comes from the species named
# Conditions: Homo sapiens
row,Variant,abundance fitness
1,E58T,-0.003 ± 0.048
2,N76A,0.036 ± 0.055
3,I37K,-0.522 ± 0.046
4,E7L,-0.048 ± 0.029
5,Q38I,-0.098 ± 0.075
6,C35A,-0.025 ± 0.034
7,C51D,-0.633 ± 0.067
8,C51E,-0.924 ± 0.06
9,E24C,0.031 ± 0.042
10,T5S,-0.082 ± 0.039
11,R21Y,-0.182 ± 0.072
12,E42R,0.005 ± 0.029
13,I70P,-0.335 ± 0.051
14,I39G,-0.48 ± 0.027
15,P57Y,-0.133 ± 0.1
16,A63N,-1.25 ± 0.2
17,E7F,0.088 ± 0.05
18,I39V,-0.027 ± 0.029
19,S43I,0.028 ± 0.069
20,E42D,-0.023 ± 0.048
21,S59K,-0.161 ± 0.058
22,E32W,-0.131 ± 0.031
23,R28E,-0.079 ± 0.034
24,Q69N,-0.059 ± 0.057

row,Variant,abundance fitness
1,E42Y,-0.086 ± 0.057
2,G20P,-0.347 ± 0.041
3,R1M,0.029 ± 0.055
4,A40M,-0.063 ± 0.04
5,I60T,-0.223 ± 0.043
6,G16H,-0.042 ± 0.052
7,E7V,-0.036 ± 0.029
8,I39R,-0.526 ± 0.028
9,R21I,-0.107 ± 0.07
10,L67M,-0.099 ± 0.046
11,E58A,-0.025 ± 0.04
12,D72Y,-0.124 ± 0.064
13,A31I,-0.025 ± 0.06
14,E61T,-0.009 ± 0.039
15,I37N,-0.69 ± 0.077
16,I29V,-0.049 ± 0.027
17,A63F,-0.427 ± 0.07
18,D72C,-0.138 ± 0.046
19,I46G,0.011 ± 0.026
20,E6P,-0.807 ± 0.054
21,G68I,-0.092 ± 0.061
22,G23N,-0.058 ± 0.078
23,M14V,-0.159 ± 0.033
24,C35G,-0.663 ± 0.031

row,Variant,abundance fitness
1,Q25Y,-0.197 ± 0.06
2,V15A,-0.059 ± 0.03
3,V10T,-0.407 ± 0.038
4,F17N,-0.141 ± 0.058
5,S27Q,-0.066 ± 0.05
6,G23Q,-0.042 ± 0.036
7,V52R,-0.072 ± 0.029
8,I39P,-0.394 ± 0.044
9,G22W,-0.149 ± 0.036
10,G16L,-0.148 ± 0.032
11,E58I,-0.256 ± 0.082
12,S41C,-0.026 ± 0.044
13,T56W,-0.332 ± 0.033
14,E6N,-0.242 ± 0.067
15,I46F,-0.023 ± 0.053
16,F8W,-0.027 ± 0.031
17,S59L,-0.797 ± 0.047
18,Q25E,-0.024 ± 0.036
19,Q38M,-0.101 ± 0.043
20,V10F,-0.055 ± 0.057
21,I39C,-0.152 ± 0.044
22,A63P,-0.986 ± 0.062
23,E58F,-0.124 ± 0.086
24,S43P,0.018 ± 0.051

row,Variant,abundance fitness
1,V71K,-0.132 ± 0.044
2,V3T,-0.098 ± 0.043
3,F17S,-0.034 ± 0.038
4,E24K,0.063 ± 0.042
5,P57C,-0.143 ± 0.054
6,G22P,-0.276 ± 0.043
7,L67A,-0.845 ± 0.05
8,I19W,-0.096 ± 0.037
9,G45W,-0.15 ± 0.032
10,L66A,-0.036 ± 0.033
11,I4L,-0.081 ± 0.03
12,I37W,-0.955 ± 0.044
13,E7M,-0.111 ± 0.04
14,I70A,0.05 ± 0.034
15,K64W,-0.578 ± 0.038
16,I37P,-0.609 ± 0.048
17,C74N,-0.007 ± 0.071
18,V15Q,-0.162 ± 0.043
19,A40H,-0.032 ± 0.058
20,K9R,-0.09 ± 0.027
21,V71D,-0.159 ± 0.046
22,E7R,-0.057 ± 0.027
23,S33G,-0.747 ± 0.032
24,I37G,-0.664 ± 0.028

row,Variant,abundance fitness
1,Q25T,-0.133 ± 0.044
2,P11S,-0.182 ± 0.037
3,R65D,-0.031 ± 0.057
4,S44E,-0.009 ± 0.034
5,S59E,-0.04 ± 0.043
6,T2M,-0.033 ± 0.046
7,F8P,-0.651 ± 0.051
8,T56Q,-0.127 ± 0.037
9,D72I,-0.225 ± 0.064
10,I18R,-0.425 ± 0.028
11,F17E,0.025 ± 0.037
12,E32P,-0.95 ± 0.069
13,Q69I,0.02 ± 0.062
14,I37A,-0.515 ± 0.034
15,G68M,0.001 ± 0.044
16,S44T,-0.015 ± 0.039
17,R28D,-0.077 ± 0.053
18,Q30E,0.029 ± 0.033
19,K36T,-0.051 ± 0.04
20,G45N,-0.01 ± 0.068
21,G16W,-0.21 ± 0.038
22,E32T,-0.055 ± 0.044
23,A31S,-0.029 ± 0.032
24,Q38D,-0.092 ± 0.047

row,Variant,abundance fitness
1,A40Q,0.044 ± 0.039
2,F17A,-0.013 ± 0.034
3,E7Q,-0.072 ± 0.039
4,I26A,-0.192 ± 0.034
5,E42S,-0.037 ± 0.037
6,K13L,-0.198 ± 0.032
7,S43R,-0.079 ± 0.03
8,N76T,-0.057 ± 0.061
9,Q62M,-0.023 ± 0.042
10,L67Y,-1.04 ± 0.13
11,R28C,-0.172 ± 0.047
12,S44H,-0.013 ± 0.066
13,R21V,-0.057 ± 0.029
14,D12M,-0.144 ± 0.041
15,C35Y,-0.578 ± 0.12
16,T2K,0 ± 0.043
17,F8M,-0.083 ± 0.045
18,G16I,-0.194 ± 0.075
19,I39A,-0.437 ± 0.036
20,E61D,0.027 ± 0.044
21,P47T,-0.063 ± 0.036
22,R49F,-0.195 ± 0.058
23,P47W,-0.084 ± 0.032
24,G45Y,-0.168 ± 0.051

row,Variant,abundance fitness
1,K64T,-0.285 ± 0.035
2,C51Y,-0.311 ± 0.065
3,G45Q,-0.046 ± 0.038
4,C51A,-0.075 ± 0.036
5,T5V,-0.09 ± 0.032
6,R1G,-0.042 ± 0.027
7,Q62I,-0.043 ± 0.037
8,I18K,-0.279 ± 0.039
9,A63K,-0.968 ± 0.086
10,L66V,-0.115 ± 0.028
11,R21Q,-0.009 ± 0.041
12,D72G,-0.033 ± 0.026
13,E32M,-0.045 ± 0.038
14,G22V,-0.191 ± 0.031
15,T2R,0.014 ± 0.029
16,S27N,0.023 ± 0.073
17,K64M,-0.336 ± 0.042
18,R1E,-0.062 ± 0.049
19,I19G,-0.102 ± 0.03
20,R21M,-0.002 ± 0.047
21,M14D,-0.126 ± 0.059
22,T54I,-0.065 ± 0.12
23,D72F,-0.118 ± 0.065
